The values below come from patent publication US6395275 (Scripps Research, dated 2002).

The target in assay [1] is T1, recombinant gp120 of HIV-1 strain IIIb (HIV-1 strain IIIb, UniProt P04578 33-511). The assay can be described thus: cell-based or functional assay.
In assay [2] the target is T1, recombinant gp120 of HIV-1 strain IIIb. The assay is described as follows: SPR BIAcore, gp120 on chip. (SPR reads the build-up and loss of mass on a sensor chip optically.)
Description: In the assay, the gp120 glycoprotein, isolated from both MN (AgMed, Cambridge, Mass.) and IIIb (American Bio-Technologies) strains of HIV-1 were coated onto gold chips. […] As the mass of the gold chips increases due to the binding of the Fabs to the ligand, the refractive index of the chips increases indicating a coordinate increase in the increase of the mass. Measurements of the "on" rate are made in addition to the "off" rates, the latter of which occurs as the Fabs begin to dissociate from the ligand and the mass coordinately decreases, thereby allowing a measurement of the change of the refractive index. Briefly, the sensor chip was activated for immobilization with N-hydroxysuccinimide an N-ethyl-N'-(3-diethyl aminopropyl) carbodiimide. The proteins, MN-derived or IIIb-derived gp120, were coupled to the surface by injection of 50 ul of a 50 ug/ml sample. Excess activated esters were quenched with 15 ul ethanolamine, 1 M pH 8.5. Typically, 4000 resonance units were immobilized. Binding of Fab fragments to immobilized gp120 was studied by injection of Fab in a range of concentrations (0.5 to 10 ug/ml) at a flow rate of 5 ul/minute. The association was monitored as the increase in resonance units per unit time. Dissociation measurements were acquired following the end of the association phase but with a flow rate of 50 ul/minute. […]
The target in assay [3] is gp120 glycoprotein of HIV-1 strain MN (HIV-1 strain MN, UniProt P05877 32-513, limits assumed). The assay can be described thus: cell-based or functional assay.
In assay [4] the target is T1, recombinant gp120 of HIV-1 strain IIIb. The assay is described as follows: SPR BIAcore, gp120 on chip. This is another data set of the same source.
Assay [5] shares this target. The assay is described as follows: SPR BIAcore, gp120 on chip. The source holds these as a separate data set.
Description: (§1) As the mass of the gold chips increases due to the binding of the Fabs to the ligand, the refractive index of the chips increases indicating a coordinate increase in the increase of the mass. Measurements of the "on" rate are made in addition to the "off" rates, the latter of which occurs as the Fabs begin to dissociate from the ligand and the mass coordinately decreases, thereby allowing a measurement of the change of the refractive index. Briefly, the sensor chip was activated for immobilization with N-hydroxysuccinimide an N-ethyl-N'-(3-diethyl aminopropyl) carbodiimide. The proteins, MN-derived or IIIb-derived gp120, were coupled to the surface by injection of 50 ul of a 50 ug/ml sample. Excess activated esters were quenched with 15 ul ethanolamine, 1 M pH 8.5. Typically, 4000 resonance units were immobilized. Binding of Fab fragments to immobilized gp120 was studied by injection of Fab in a range of concentrations (0.5 to 10 ug/ml) at a flow rate of 5 ul/minute. The association was monitored as the increase in resonance units per unit time. Dissociation measurements were acquired following the end of the association phase but with a flow rate of 50 ul/minute. The binding surface was regenerated with HCl, 1M NaCl, pH 3 and remained active for 20–40 measurements. […] Equilibrium association and dissociation constants were deduced from the rate constants.
The target is the same in assay [6]. The assay can be described thus: calculated as ln2/Koff from SPR.
Protocol: (§2) The soluble composite Fabs were then analyzed for binding affinity to gp120 strain IIIB.
In addition, the half-life of the binding of the gp120-reactive Fabs to gp120 can be obtained by dividing the natural log ($\ln_2$) with the $Koff$ rate constant, thereby obtaining a further parameter of the nature of the interaction.
Assay [7] shares this target. The assay is described as follows: SPR BIAcore, gp120 on chip. The source holds these as a separate data set.
Description: as §1, §2
The target is the same in assay [8]. The assay is described as follows: SPR BIAcore, gp120 on chip. This is another data set of the same source.
Assay [9] has the same target. The assay can be described thus: SPR BIAcore, gp120 on chip (summary table).
Assay [10] has the same target. The assay is described as follows: SPR BIAcore, gp120 on chip. This is another data set of the same source.
Description: as §1
The soluble M556 series Fabs were then analyzed for binding affinity to gp120 (strain IIIB).
Assay [11] shares this target. The assay is described as follows: SPR BIAcore, gp120 on chip. This is another data set of the same source.
Description: as §1
The soluble A–D series Fabs were then analyzed for binding affinity to gp120 strain IIIB.
Assay [12] shares this target. The assay can be described thus: SPR BIAcore, gp120 on chip. The source holds these as a separate data set.
Protocol: Briefly, the sensor chip was activated for immobilization with N-hydroxysuccinimide an N-ethyl-N'-(3-diethyl aminopropyl) carbodiimide. The proteins, MN-derived or IIIb-derived gp120, were coupled to the surface by injection of 50 ul of a 50 ug/ml sample. Excess activated esters were quenched with 15 ul ethanolamine, 1 M pH 8.5. Typically, 4000 resonance units were immobilized. Binding of Fab fragments to immobilized gp120 was studied by injection of Fab in a range of concentrations (0.5 to 10 ug/ml) at a flow rate of 5 ul/minute. The association was monitored as the increase in resonance units per unit time. Dissociation measurements were acquired following the end of the association phase but with a flow rate of 50 ul/minute. The binding surface was regenerated with HCl, 1M NaCl, pH 3 and remained active for 20–40 measurements. […] Equilibrium association and dissociation constants were deduced from the rate constants.

A word on the Kd: it is the constant that tells how readily two partners part at equilibrium. As a reminder, the koff is the rate constant with which the complex falls apart. By kon is commonly meant the second-order rate constant of association.

Substitutions are numbered along the chain they refer to. Read-outs that look alike come from different tables or passages of the source.

B1: Fab 3b3 (Fab, V domains shown)
VH: LEQSGAEVKKPGASVKVSCQASGYRFSNFTVHWVRQAPGQRFEWMGWINPYNGNKEFSAKFQDRVTFTADTSANTAYMELRSLRSADTAVYYCARVGEWGWDDSPQDNYYMDVWGKGTTVIVSS
VL: ELTQSPGTLSLSPGERATFSCRSSHSIRSRRVAWYQHKPGQAPRLVIHGVSNRASGISDRFSGSGSGTDFTLTITRVEPEDFALYYCQVYGASSYTFGQGTKLERKR
For B1, in assay [1], the “IC50 (M), syncytium neutralization assay, HIV-1 IIIb” value is 9.4e-10 M and the “Neutralization titer (ng/ml), syncytium assay, HIV-1 IIIb” value turned out to be 47 ng/mL. Also, in [2], the Kd was 0.77 nM. For the same molecule, in assay [3], the “IC50 (M^-1), syncytium neutralization assay, HIV-1 MN on CEM-SS cells” value (shortened to “IC50 … on CEM-SS cells”) was determined as 9.02e+09 M⁻¹ and the “Neutralization Titer (ng/ml), syncytium assay, HIV-1 MN” value (from here on “Neutralization Titer … HIV-1 MN”) is 5.5 ng/mL. In assay [4], the Ka is 1.3e+09 M⁻¹.

B2: Fab 3b4 (Fab, V domains shown)
VH: LEQSGAEVKKPGASVKVSCQASGYRFSNYTLIWVRQAPGQRFEWMGWINPYNGNKEFSAKFQDRVTFTADTSANTAYMELRSLRSADTAVYYCARVGPWNWDSPQDNYYMDVWGKGTTVIVSS
VL: B1 VL
In the case of B2, in assay [3], the “IC50 … on CEM-SS cells” value is 2.57e+09 M⁻¹ and the “Neutralization Titer … HIV-1 MN” value was 19.4 ng/mL.

B3: Fab H4L3-3 (Fab, V domains shown)
VH: B1 VH
VL: ELTQSPGTLSLSPGERATFSCRSSHSIRSRRVAWYQHKPGQAPRLVIHGVSNRASGISDRFSGSGSGTDFTLTITRVEPEDFALYYCQVYGGSAYTFGQGTKLERK
On to B3, for which, in assay [5], the “Fold Increase of Mutant Kd Compared to MT4 Kd” value (from here on “Fold Increase”) came out at 1.9 fold and the Kd came to 3.31 nM.

B4: composite Fab H31/L42-1 (Fab, V domains shown)
VH: B1 VH with N28H, M45H, D102E, D103M, S104F, P105R, Q106Y
VL: B1 VL with S26Q, I27L, R28D, S29G, R30S, V89Q, A92W, S93P, S94F
notes: also called Fab of plasmid pPho-H31/L42-1 (ATCC 69691)
Consider B4, for which, in assay [6], the half-life of binding was 44.5 days. Also, in [7], the “Fold Increase” value amounted to 2430 fold, the Ka stood at 3.85e+11 M⁻¹ and the Kd came out at 0.00259 nM. In [8], the koff worked out at 1.75e-07 s⁻¹ and the kon amounted to 67300 M⁻¹ s⁻¹. Besides, the dissociation constant (Kd) in assay [9] came out at 0.00259 nM.

B5: Fab MT4 (Fab, V domains shown)
VH: B1 VH with T30V, V31I, E98P, W99Y, G100S
VL: B1 VL
notes: also called Fab 4; 4H (heavy chain)
As to B5, in [3], the “IC50 … on CEM-SS cells” value stood at 1.69e+08 M⁻¹ and the “Neutralization Titer … HIV-1 MN” value worked out at 296 ng/mL.

B6: Fab M556-15 (Fab, V domains shown)
VH: B1 VH with D102T, D103Q, S104R, P105R, Q106F
VL: B1 VL
On to B6, for which, in assay [10], the “Fold Increase” value turned out to be 36.2 fold and the Kd was found to be 0.174 nM. In addition, in assay [9], the dissociation constant (Kd) came out at 0.174 nM.

B7: Fab M556-7 (Fab, V domains shown)
VH: B1 VH with D102E, D103M, S104R, P105R, Q106F
VL: B1 VL
As for B7, in [10], the “Fold Increase” value amounted to 48.1 fold. In addition, the Kd in assay [10] was 0.131 nM; in assay [9], 0.13 nM.

B8: Fab 3b1 (Fab, V domains shown)
VH: B1 VH with V31L, H32M, E98Q, G100N
VL: B1 VL
With B8, in [1], the “IC50 (M), syncytium neutralization assay, HIV-1 IIIb” value is 4.4e-10 M and the “Neutralization titer (ng/ml), syncytium assay, HIV-1 IIIb” value was 22 ng/mL. In addition, in assay [3], the “IC50 … on CEM-SS cells” value worked out at 5.42e+09 M⁻¹ and the “Neutralization Titer … HIV-1 MN” value was determined as 9.2 ng/mL.

B9: Fab A (Fab, V domains shown)
VH: B1 VH
VL: B1 VL with S26K, I27E, R28F, S29G
As for B9, in assay [11], the “Fold Increase” value stood at 1.3 fold and the Kd was 4.7 nM.

B10: Fab H4L3-2 (Fab, V domains shown)
VH: B1 VH
VL: B1 VL with V89Q, A92W, S93P, S94F
B10: in [5], the “Fold Increase” value is 45.3 fold and the Kd was 0.138 nM. Further, the Kd in assay [9] amounted to 0.138 nM.

B11: Fab H4H1-5 (Fab, V domains shown)
VH: B1 VH with N28H, V31I, H32M, E98P, W99Y, G100S
VL: B1 VL
B11: in assay [12], the “Fold Increase” value came to 2.57 fold and the Kd is 2.45 nM.

B12: Fab B (Fab, V domains shown)
VH: B1 VH
VL: B1 VL with S26T, I27V, R28Y, S29R, R30D
B12: in [11], the “Fold Increase” value came to 5.7 fold and the Kd was found to be 1.1 nM.

B13: Fab M556-16 (Fab, V domains shown)
VH: B1 VH with D103Q, S104V, P105R, Q106Y
VL: B1 VL
As for B13, in assay [10], the “Fold Increase” value is 45.3 fold and the Kd stood at 0.139 nM. The Kd in [9] is 0.139 nM.

B14: Fab 3b9 (Fab, V domains shown)
VH: B1 VH with E98P, G100R, T119I
VL: B1 VL
Take B14: in assay [3], the “IC50 … on CEM-SS cells” value was found to be 6.4e+09 M⁻¹ and the “Neutralization Titer … HIV-1 MN” value came out at 7.8 ng/mL.

B15: Fab H4H1-1 (Fab, V domains shown)
VH: B1 VH with N28H, E98P, W99Y, G100S
VL: B1 VL
B15: in assay [12], the “Fold Increase” value worked out at 3.7 fold and the Kd came to 1.7 nM.

B16: Fab M556-10 (Fab, V domains shown)
VH: B1 VH with D102H, D103Q, S104R, P105R, Q106Y
VL: B1 VL
In the case of B16, in assay [10], the “Fold Increase” value stood at 69.5 fold. Further, the Kd in [10] worked out at 0.0906 nM; in [9] it was 0.906 nM.

B17: Fab H4H1-3 (Fab, V domains shown)
VH: B1 VH with N28H, V31L, E98P, W99Y, G100S
VL: B1 VL
Regarding B17, in assay [12], the “Fold Increase” value worked out at 3.15 fold and the Kd was found to be 2 nM.

B18: Fab D (Fab, V domains shown)
VH: B1 VH
VL: B1 VL with S26Q, I27L, R28D, S29G, R30S
Regarding B18, in assay [11], the “Fold Increase” value was found to be 28.6 fold and the Kd stood at 0.22 nM. The Kd in [9] stood at 0.22 nM.

B19: Fab H4L3-4 (Fab, V domains shown)
VH: B1 VH
VL: B1 VL with V89K, A92G, S93G, S94T
As to B19, in [5], the “Fold Increase” value was 25.7 fold and the Kd turned out to be 0.243 nM. Further, in assay [9], the Kd was 0.243 nM.
